Patent US20240287161A1 (NATIONAL UNIVERSITY CORPORATION TOTTORI UNIVERSITY, published 2024)

B1: NT-193 (recombinant human IgG1/kappa antibody) (antibody, V domains shown)
VH: EVQLQQWGAGLLKPSETLSLTCAVYGGSFSGYYWSWIRQPPGKGLEWIGEINHSGSTNYNPSLKSRVTISVDTSKNQFSLKLSSVTAADTAVYYCARGWDLDYYYGMDVWGQGTTVTVSS
VL: DIRMTQSPSAMSASVGDRVTVTCRASQGIGNYLAWFQLKPGKVPKRLIYAASSLQSGVPARFSGGGSGTEFTLTISSLQPEDFATYYCLQHGFLPWTFGQGTKLEIK
B2: NT-193, human IgG2 subclass (antibody, V domains shown)
VH: B1 VH
VL: B1 VL
B3: NT-193, human IgG3 subclass (antibody, V domains shown)
VH: B1 VH
VL: B1 VL
B4: NT-193, human IgG4 subclass (antibody, V domains shown)
VH: B1 VH
VL: B1 VL
B5: NT-108 (recombinant human IgG1/kappa antibody) (antibody, V domains shown)
VH: EVQLQQSGPGLVKPSQTLSLTCSISGDSVSSNSAAWNWIRQSPSRGLEWLGRTYYRSKWYNDYAGTVKSRIAINPDTSKNQFSLHLNSVTPEDTAVYFCARVISVAGYAFDIWGQGTMVTVSS
VL: EIVLTQSPGTLSLSPGERATLSCRASQSVSSTFLAWYQQKPGQAPRLLIYGASYMATGIPDRFSGSGSGTDFTLTISRLEPEDFAVYYCQQYGSSLTFGGGTKLEIK
B6: NT-108, human IgG3 subclass (antibody, V domains shown)
VH: B5 VH
VL: B5 VL
B7: NT-108, human IgG4 subclass (antibody, V domains shown)
VH: B5 VH
VL: B5 VL
B8: NT-108, human IgG2 subclass (antibody, V domains shown)
VH: B5 VH
VL: B5 VL

Columns and labels:
[1] = target: T1, SARS-CoV1 spike protein on VSV pseudovirus (SARS-CoV-1, UniProt P59594 14-1255); test: cell-based or functional assay
[2] = target: T2, SARS-CoV2 S protein on VSV pseudovirus (SARS-CoV-2, UniProt P0DTC2 14-1273); test: cell-based or functional assay
Authentic CoV2 [3] = target: T3, Authentic CoV2 (SARS-CoV-2 JPN/TY/WK-521); test: cell-based or functional assay
[4] = target: T1, SARS-CoV1 spike protein on VSV …; test: cell-based or functional assay; remark: listed apart in the source
[5] = target: T2, SARS-CoV2 S protein on VSV pseudovirus; test: cell-based or functional assay; remark: listed apart in the source
Authentic CoV2 [6] = target: T3, Authentic CoV2; test: cell-based or functional assay; remark: listed apart in the source
[7] = target: SARS-CoV-2 spike receptor-binding domain (RBD, amino acids 322 to 536), histidine-tagged (Example 2) (SARS-CoV-2, UniProt P0DTC2 322-536)
[8] = target: SARS-CoV1 recombinant S protein RBD region, 9x His tag (Example 1) (SARS-CoV1, UniProt P59594 306-527); test: ELISA on RBD-coated plate (FIG. 3)
[9] = target: MERS-CoV recombinant S protein RBD region, 9x His tag (Example 1) (MERS-CoV, UniProt K9N5Q8 367-606); test: ELISA on RBD-coated plate (FIG. 3)

Binder	IC50, pseudovirus neutralization [NT-193] [5]	IC50, authentic virus neutralization [NT-193] (Authentic CoV2 [6])	IC50, pseudovirus neutralization [NT-108] [5]	IC50, authentic virus neutralization [NT-108] (Authentic CoV2 [6])	also measured
B1	0.0111 µg/mL	0.241 µg/mL			IC50 of the neutralizing activity against SARS-CoV (pseudovirus) [1]: 0.013 µg/mL; IC50, pseudovirus neutralization [2]: 0.0209 µg/mL; IC50, authentic virus neutralization (Authentic CoV2 [3]): 0.0851 µg/mL; IC50, pseudovirus neutralization [4]: 0.0061 µg/mL
B2	0.0065 µg/mL	0.212 µg/mL			
B3	0.001 µg/mL	0.127 µg/mL			
B4	0.0044 µg/mL	0.247 µg/mL			
B5			0.0057 µg/mL	0.116 µg/mL	EC50 [7]: 0.455 µg/mL; binding result [8]: no binding; binding result [9]: no binding; IC50, pseudovirus neutralization [2]: 0.0061 µg/mL; IC50, authentic virus neutralization (Authentic CoV2 [3]): 0.0403 µg/mL
B6			0.001 µg/mL	0.049 µg/mL	
B7			0.0031 µg/mL	0.116 µg/mL	
B8			0.002 µg/mL	0.101 µg/mL	
